# Reference: publication PMC12682122
# Biological target: alpha-enolase (baker's yeast) (baker's yeast) (UniProt P00924)
# Test: cross-linking; 1 mg/ml alpha-enolase in PBS with BVSS-Me, BVSS-Et, BVSS-Ph, Alkyne-BVSC or DSBSO (1 mM, 1 h, 37 °C; DSBSO 30 min RT); SDS-PAGE, Coomassie stain; DMSO as negative control
substance,measurement,value
alpha-enolase (baker's yeast) (from UniProt P00924 1-437) (enzyme),stoichiometry N,2
